In assay [1] the target is human Mpl expressed on BaF3 cells (BaF3-human Mpl) (human) (UniProt P40238). In words: cell-based or functional assay.
Assay [2] deals with T1, MG10 (Gln213 to Ala231)-GST fusion protein (human, also: fused with GST).
T1 construct: As MG1; also called MG10-GST fusion protein; GST fusion protein containing MG10; not shown: glutathione-S-transferase of vector pGEX-4T-3 (Amersham Biosciences)
T1 chain: QPTMPWQDGPKQTSPSREA
In words: SPR, Biacore 3000, MG10-GST immobilized on CM5, Bivalent analyte model (constants as for the monovalent antibody), triplicate. The method, then:
The Sensor Chip CM5 (Biacore) was placed in Biacore 3000 (Biacore), and MG10-GST fusion protein was immobilized onto the chip by amine-coupling methods. HBS-EP Buffer (Biacore) was used as the running buffer, and the flow rate was 20 μL/min. 5.5 to 175.0 nM of VB22B IgG solution was prepared using HBS-EP Buffer, and injected over each of the chip surfaces for 2 min to obtain the binding region at the respective concentrations. Then, dissociation region for the 2 minutes was measured. VB22B IgG bound to the MG10-GST fusion protein on the sensor chip was removed by injecting 20 mM HCl over the sensor chip for 1 min, and the chip was recovered. Similarly, 4.7 to 150.1 nM of VB22B sc(Fv)2, 5.3 to 168.9 nM of hVB22B q-wz5 sc(Fv)2, and 4.9 to 156.8 nM of hVB22B u2-wz4 sc(Fv)2 were prepared and injected over the chip surfaces onto which MG10-GST fusion protein was immobilized, and the measurement was carried out.
All the antibodies used were bivalent antibodies, and thus the sensorgrams at each concentration were obtained in the presence of both monovalent and bivalent bindings. In this context, the reaction rate constant was determined as that for the monovalent antibody by analysis using the Bivalent analyte model of BIAevaluation ver.3.1 software (Biacore). The above analysis was carried out in triplicates for each antibody. The binding rate constant (ka), dissociation rate constant (kd), and dissociation constant (KD) were determined as those for the monovalent antibody by the procedure described above. The constants are indicated below in Table 1.

In assay [3] the target is T2, cynomolgus monkey Mpl expressed on CHO cells (CHO-monkey Mpl) (cynomolgus monkey, UniProt P40238 26-635 (human entry)).
T2 construct: pCXND3-monkey Mpl-His in CHO-DG44; also called monkey Mpl-His
T2 chain: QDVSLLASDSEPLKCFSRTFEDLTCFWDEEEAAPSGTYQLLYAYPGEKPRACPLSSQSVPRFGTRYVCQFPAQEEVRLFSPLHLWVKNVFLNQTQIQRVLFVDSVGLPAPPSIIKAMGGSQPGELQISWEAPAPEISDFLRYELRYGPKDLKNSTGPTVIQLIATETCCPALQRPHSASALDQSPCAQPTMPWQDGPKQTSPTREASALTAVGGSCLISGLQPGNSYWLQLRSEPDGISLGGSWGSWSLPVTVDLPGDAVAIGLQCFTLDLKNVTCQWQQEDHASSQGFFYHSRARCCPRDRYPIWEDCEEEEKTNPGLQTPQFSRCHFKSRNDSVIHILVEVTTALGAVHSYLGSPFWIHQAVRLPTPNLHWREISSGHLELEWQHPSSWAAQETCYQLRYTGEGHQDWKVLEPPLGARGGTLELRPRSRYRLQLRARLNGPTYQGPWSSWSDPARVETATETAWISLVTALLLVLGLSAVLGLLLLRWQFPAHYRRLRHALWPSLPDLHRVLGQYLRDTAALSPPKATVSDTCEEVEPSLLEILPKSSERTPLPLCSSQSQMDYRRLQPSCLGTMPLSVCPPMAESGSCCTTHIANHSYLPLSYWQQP
In words: flow cytometry on CHO-monkey Mpl cells; COS7 culture supernatant; detection with anti-FLAG M2 antibody and FITC-labeled anti-mouse IgG. The method, then:
(§1) CHO-human Mpl, CHO-monkey Mpl, and CHO-mouse Mpl cells were recovered and suspended in FACS buffer (1% FBS/PBS) to a final concentration of 1×10⁶ cells/mL. Cell suspensions were aliquoted at 100-μL/well into the Multiscreen-HV Filter Plates (Millipore). After centrifugation, the supernatant was removed. An appropriate concentration of diabody or sc(Fv)2 was added into each well and incubated on ice for 30 min. The cells were washed once with 200 μL of FACS buffer, and incubated on ice for 30 min following the addition of 10 μg/mL ANTI-FLAG® M2 Monoclonal Antibody (Sigma-Aldrich). The cells were then washed once with 200 μL of FACS buffer, and a 100×-diluted FITC-labeled anti-mouse IgG antibody (Beckman Coulter) was added to the plate. The plate was incubated on ice for 30 min. After centrifugation, the supernatant was removed. The cells were suspended in 400 μL of FACS Buffer, and then analyzed by flow cytometry using EPICS ELITE ESP (Beckman Coulter). An analysis gate was set on the forward and side scatters of a histogram to include viable cell populations.
(§2) The binding activities of the diabodies were assessed by flow cytometry using CHO cells that express Mpl derived from various species (FIG. 8). AB317 was proven to bind to CHO-mouse Mpl.

The target of assay [4] is T3, mouse Mpl expressed on CHO cells (CHO-mouse Mpl) (mouse, UniProt Q08351 26-625).
T3 construct: whole, on cells; pCXND3-mouse Mpl-His in CHO-DG44; also called mouse Mpl-His
T3 sequence (looked up): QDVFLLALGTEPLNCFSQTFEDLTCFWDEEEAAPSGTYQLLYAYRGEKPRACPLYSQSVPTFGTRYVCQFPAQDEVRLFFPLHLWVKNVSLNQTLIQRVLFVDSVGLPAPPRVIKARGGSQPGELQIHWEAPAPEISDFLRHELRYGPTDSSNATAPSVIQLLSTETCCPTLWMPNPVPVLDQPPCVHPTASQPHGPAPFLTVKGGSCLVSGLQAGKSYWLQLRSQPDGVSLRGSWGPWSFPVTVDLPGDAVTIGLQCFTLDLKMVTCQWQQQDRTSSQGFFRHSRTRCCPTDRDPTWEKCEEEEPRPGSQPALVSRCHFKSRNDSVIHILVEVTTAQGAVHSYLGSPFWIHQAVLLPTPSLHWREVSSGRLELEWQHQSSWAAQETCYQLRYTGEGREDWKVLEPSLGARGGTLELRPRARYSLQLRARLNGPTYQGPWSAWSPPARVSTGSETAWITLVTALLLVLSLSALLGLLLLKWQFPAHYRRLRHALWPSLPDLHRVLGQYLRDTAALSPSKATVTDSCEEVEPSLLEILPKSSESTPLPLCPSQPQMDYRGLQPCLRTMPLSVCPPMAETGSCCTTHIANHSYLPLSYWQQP
Briefly: flow cytometry on CHO-mouse Mpl cells; COS7 culture supernatant; detection with anti-FLAG M2 antibody and FITC-labeled anti-mouse IgG. The method, then:
as §1, §2

The target of assay [5] is T4, human Mpl expressed on BaF3 cells (BaF3-human Mpl) (human, UniProt P40238 26-635).
T4 sequence: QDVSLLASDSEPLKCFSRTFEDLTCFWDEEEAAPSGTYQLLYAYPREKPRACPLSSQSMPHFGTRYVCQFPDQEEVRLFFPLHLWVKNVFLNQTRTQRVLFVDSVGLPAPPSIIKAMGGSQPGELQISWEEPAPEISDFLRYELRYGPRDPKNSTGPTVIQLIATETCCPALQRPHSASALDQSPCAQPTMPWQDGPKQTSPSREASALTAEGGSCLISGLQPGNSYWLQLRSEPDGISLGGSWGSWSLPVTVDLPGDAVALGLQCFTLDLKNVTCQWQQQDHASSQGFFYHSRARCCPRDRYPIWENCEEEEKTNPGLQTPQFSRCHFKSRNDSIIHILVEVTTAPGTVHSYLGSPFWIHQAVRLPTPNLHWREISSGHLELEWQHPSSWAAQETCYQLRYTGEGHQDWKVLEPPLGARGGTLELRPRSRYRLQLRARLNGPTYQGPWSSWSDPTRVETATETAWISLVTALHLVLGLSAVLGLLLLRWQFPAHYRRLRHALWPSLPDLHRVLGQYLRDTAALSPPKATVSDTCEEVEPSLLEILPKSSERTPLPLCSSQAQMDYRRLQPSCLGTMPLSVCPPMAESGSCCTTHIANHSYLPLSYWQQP
Briefly: cell-based or functional assay.

Assay [6] concerns the target T2, cynomolgus monkey Mpl expressed on CHO …. Briefly: flow cytometry on CHO cells, detection by anti-FLAG M2 and FITC anti-mouse IgG. On the procedure: as §1
(§3) The binding activity of the purified VB22B sc(Fv)2 to various Mpl molecules expressed in CHO cells was determined (FIG. 2).

The target in assay [7] is T3, mouse Mpl expressed on CHO cells …. The description is as above. The method, then:
as §1, §3

Changes are numbered by the printed parent chain. No end group written: not given here.

Take “recombinant human thrombopoietin (rhTPO, R&D) (from UniProt P40225 22-353) (ligand)”: in assay [1], the agonistic activity, EC50 (growth of BaF3-human Mpl, WST-8) was 0.076 nM.

B1: hVB22B q-wz5 sc(Fv)2 (scFv)
chain: QVQLVQSGPEVKKPGASVKVSCKASGYTFTNSWMNWVRQRPGKGLEWIGRIYPGDGETIYNGKFRVRVTITADESTSTAYMELSSLRSEDTAVYYCARGYDDYSFAYWGQGTTVTVSSGGGGSGGGGSGGGGSDIVMTQSPLSLPVTPGEPASISCRSSKSLLHSNGNTYLYWFQQKPGQAPRLLIYRMSNLASGVPDRFSGSGSGTAFTLKISRVEAEDVGVYYCMQHIEYPFTFGQGTKLEIKGGGGSGGGGSGGGGSQVQLVQSGPEVKKPGASVKVSCKASGYTFTNSWMNWVRQRPGKGLEWIGRIYPGDGETIYNGKFRVRVTITADESTSTAYMELSSLRSEDTAVYYCARGYDDYSFAYWGQGTTVTVSSGGGGSGGGGSGGGGSDIVMTQSPLSLPVTPGEPASISCRSSKSLLHSNGNTYLYWFQQKPGQAPRLLIYRMSNLASGVPDRFSGSGSGTAFTLKISRVEAEDVGVYYCMQHIEYPFTFGQGTKLEIK
notes: Humanized sc(Fv)2 without Flag tag, purified on an MG10-GST column; also called humanized VB22B sc(Fv)2 (q-wz5)
In assay [2], B1 registered a Kd of 13.6 nM, an off-rate (koff) of 0.0051 s⁻¹ and a kon of 376000 M⁻¹ s⁻¹.

B2: hVB22B u2-wz4 sc(Fv)2 (scFv)
chain: B1 chain with E82Q, Q175L, A181S, R183Q, A208D, E342Q, Q435L, A441S, R443Q, A468D
notes: Humanized sc(Fv)2 without Flag tag, purified on an MG10-GST column; also called humanized VB22B sc(Fv)2 (u2-wz4)
On to B2, for which, in assay [2], the Kd is 10.2 nM, the off-rate (koff) was found to be 0.00617 s⁻¹ and the kon was found to be 608000 M⁻¹ s⁻¹.

B3: VB22B diabody (scFv)
scFv: QVQLQQSGPELVKPGASVKISCKASGYAFTNSWMNWVKQRPGKGLEWIGRIYPGDGETIYNGKFRVKATLTADKSSSTAYMDISSLTSEDSAVYFCARGYDDYSFAYWGQGTLVTVSAGGGGSDIVMTQAAPSIPVTPGESVSISCRSSKSLLHSNGNTYLYWFLQRPGQSPQLLIYRMSNLASGVPDRFSGSGSGTAFTLRISRVEAEDVGVYYCMQHIEYPFTFGSGTKLEIK
notes: also called VB22B db; VB22B single-chain Fv
With B3, the binding result in assay [3] is on record as “binds”; in assay [4] it was “no binding”. Moreover, the “TPO-like agonistic activity, EC50 (growth of BaF3-human Mpl, WST-8)” value in assay [5] was 0.061 nM.

B4: VB22B sc(Fv)2 (scFv)
chain: QVQLQQSGPELVKPGASVKISCKASGYAFTNSWMNWVKQRPGKGLEWIGRIYPGDGETIYNGKFRVKATLTADKSSSTAYMDISSLTSEDSAVYFCARGYDDYSFAYWGQGTLVTVSAGGGGSGGGGSGGGGSDIVMTQAAPSIPVTPGESVSISCRSSKSLLHSNGNTYLYWFLQRPGQSPQLLIYRMSNLASGVPDRFSGSGSGTAFTLRISRVEAEDVGVYYCMQHIEYPFTFGSGTKLEIKGGGGSGGGGSGGGGSQVQLQQSGPELVKPGASVKISCKASGYAFTNSWMNWVKQRPGKGLEWIGRIYPGDGETIYNGKFRVKATLTADKSSSTAYMDISSLTSEDSAVYFCARGYDDYSFAYWGQGTLVTVSAGGGGSGGGGSGGGGSDIVMTQAAPSIPVTPGESVSISCRSSKSLLHSNGNTYLYWFLQRPGQSPQLLIYRMSNLASGVPDRFSGSGSGTAFTLRISRVEAEDVGVYYCMQHIEYPFTFGSGTKLEIK
notes: Single-chain (Fv)2 with 15-residue linkers, purified on anti-Flag gel (FLAG-tagged); also called murine VB22B sc(Fv)2; anti-human Mpl sc(Fv)2
For the molecule B4, in assay [2], the Kd was 11.7 nM, the dissociation rate constant (koff) was 0.00491 s⁻¹ and the kon stood at 423000 M⁻¹ s⁻¹. Moreover, the binding result in assay [6] was “binds”. For the same molecule, the binding result in assay [7] is “no binding”. The “TPO-like agonistic activity, EC50 (growth of BaF3-human Mpl, WST-8)” value in assay [5] turned out to be 0.027 nM.

For the origin of these results see patent publication US20060222643A1 (Chugai, published 2006).
